# B1: OLR full-length gapA operator, 45 bp (dsDNA)
# DNA 1: TGACGGGACGTTTTTTGTCATAGCGGGACATATAATGTCCAGCAA
# DNA 2: TTGCTGGACATTATATGTCCCGCTATGACAAAAAACGTCCCGTCA
# B2: OR right half-operator, 23 bp (dsDNA)
# DNA 1: TAGCGGGACATATAATGTCCAGC
# DNA 2: GCTGGACATTATATGTCCCGCTA
# B3: OR 23 bp, fluorescent (mix of two singly labelled duplexes) (dsDNA)
# DNA 1: TAGCGGGACATATAATGTCCAGC
# DNA 2: GCTGGACATTATATGTCCCGCTA
# Experiments:
# CggR [1] = target: T1, CggR (Bacillus subtilis, UniProt O32253 1-340); assay: SEC and SAXS
# CggR [2] = target: T1, CggR; assay: SEC and SAXS; remark: listed apart in the source
# CggR [3] = target: T1, CggR; assay: two-photon FCCS
# T1 sequence (O32253 whole entry): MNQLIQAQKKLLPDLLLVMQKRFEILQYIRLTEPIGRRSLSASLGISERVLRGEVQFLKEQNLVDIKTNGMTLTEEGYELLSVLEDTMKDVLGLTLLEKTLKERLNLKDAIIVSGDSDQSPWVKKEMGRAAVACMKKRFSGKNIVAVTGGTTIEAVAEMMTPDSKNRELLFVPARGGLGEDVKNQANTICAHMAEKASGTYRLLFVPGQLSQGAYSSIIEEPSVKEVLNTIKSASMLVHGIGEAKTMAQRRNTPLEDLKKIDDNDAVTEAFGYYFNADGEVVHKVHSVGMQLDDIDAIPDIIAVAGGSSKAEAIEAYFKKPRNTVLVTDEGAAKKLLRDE
binder,measurement,setting,value
B1,binding result,CggR [1],binds
B2,binding result,CggR [2],binds
B3,binding result,CggR [3],binds

# Reference: publication PMC2943609
